Measured values as given in patent publication US20070026059A1, “Ligands for orphan nuclear hormone receptor steroidogenic factor-1 (SF-1)” (priority 2005, published 2007).
Each block holds one compound with its values, some of them ahead of it. Ends that are not written are not given here. * marks the point of attachment. Biotin = O=C1N[C@H]2[C@H](CS[C@H]2CCCCC(=O)*)N1

Key:
[1] = target: T1, SF-1 LBD / TIF2 co-activator motif interaction (Mus musculus, UniProt P33242); assay: AlphaScreen assay of SF-1 binding to TIF2 co-activator LxxLL motif in absence or presence of phospholipids; format: biochemical; conditions: for EC50: in the presence of 10% ethanol, FIG. 5E, read-out: potency (EC50) for recovering the SF-1/TIF2 binding activity
T1 construct: The mouse SF1 LBD (residues 221-462) was expressed as a 6×His fusion protein; made in house; host or cells: E. coli BL21 (DE3), pET24a
Experimental: The mouse SF1 LBD (residues 221-462) was expressed as a 6×His fusion protein from the expression vector pET24a (Novagen). BL21 (DE3) cells transformed with this expression plasmid were grown in LB broth at 16° C. to an OD600 of ˜1.0 and induced with 0.1 mM isopropylthio-β-D-galactoside (IPTG) for 16 hours. Cells were harvested, resuspended in 400 ml extract buffer (20 mM Tris pH8.0, 150 mM NaCl, 10% glycerol) per 6 l. of cells, and passed 3 times through a French Press with pressure set at 1000 pa. The lysate was centrifuged at 20,000 rpm for 30 minutes and the supernatant was loaded onto a 50 ml Ni-NTA column (Qiagen). The column was washed with extract buffer and the protein eluted with 300 ml gradient to buffer B (10 mM Tris, PH8.0, 150 mM NaCl, 10% glycerol and 500 mM imidazole). The protein was further purified with a Q-Sepharose column (Amersham Biosciences). A typical yield of the purified protein was about 100 mg from each liter of cells. To prepare the protein-cofactor complex, we added a 2-fold excess of the SHP peptide ([…]; SEQ ID NO:1) to the purified protein, followed by filter concentration to 15 mg/ml.
(§1) All phospholipids were purchased from Sigma and stored according to the manufacturer's instructions. The binding of the various peptide motifs to SF-1 was determined by AlphaScreen™ assays from Perkins-Elmer as described recently for other nuclear receptors (Xu et al., 2002). Wild type SF-1 and the mutated LBDs were purified as 6×His tag fusion proteins for the assays. The experiments were conducted with approximately 20-30 nM receptor LBD and 20 nM of biotinylated TIF2 peptide or other co-activator peptides in the presence of 5 μg/ml donor and acceptor beads in a buffer containing 50 mM MOPS, 50 mM NaF, 0.05 mM CHAPS, and 0.1 mg/ml bovine serum albumin, all adjusted to pH 7.4. An AlphaScreen kit for detection of hexa-His was used in this experiment and the binding signals for the TIF2/SF-1 interaction were detected in the absence or the presence of exogenous phospholipids. EC50/IC50 values for the effects of phospholipids on TIF2 binding to SF-1 were determined from a nonlinear least square fit of the data based on an average of three repeated experiments with standard errors typically less than 10% of measurements.

[2] = system: mutated SF-1 LBD (pocket residue to tryptophan mutants); assay: AlphaScreen assay: effect of 12PE on restoring co-activator binding of mutated SF-1 receptors; format: biochemical, mouse; conditions: 12PE 1.25 μM, FIG. 6E
Experimental: E. Effects of 12PE (1.25 μM) on restoring TIF2 binding activity of mutated SF-1 receptors.
as §1, with “EC50/IC50 values for the effects of phospholipids on TIF2 binding to SF-1 were determined from a nonlinear least square fit of the data based on an average of three repeated experiments with standard errors typically less than 10% of measurements.” left out
The SF-1 pocket comprises 51 residues that form intimate contacts with the bound phospholipid ligand. […] All mutated receptors expressed well and were readily purified for AlphaScreen assays that measure SF-1 recruitment of three different co-activator motifs that show interactions with SF-1 in FIG. 1A.

SF-1 LBD = target: T2, SF-1 LBD (Mus musculus, UniProt P33242); assay: AlphaScreen binding of LxxLL / co-repressor motif peptides to purified SF-1 LBD; conditions: FIG. 1A
T2 construct: The mouse SF1 LBD (residues 221-462) was expressed as a 6×His fusion protein; made in house; host or cells: E. coli BL21 (DE3), pET24a
Experimental: A. Binding of various LxxLL motifs to the purified SF-1 LBD as measured by AlphaScreen™ assays. The background reading of either SF-1 or the peptides alone is less than 200. The peptide sequences are listed in experimental procedures. The results are the average of three experiments (error bars=standard deviation).
as §1
The peptides with an N-terminal biotinylation are listed below.

T1 sequence (P33242 221-462): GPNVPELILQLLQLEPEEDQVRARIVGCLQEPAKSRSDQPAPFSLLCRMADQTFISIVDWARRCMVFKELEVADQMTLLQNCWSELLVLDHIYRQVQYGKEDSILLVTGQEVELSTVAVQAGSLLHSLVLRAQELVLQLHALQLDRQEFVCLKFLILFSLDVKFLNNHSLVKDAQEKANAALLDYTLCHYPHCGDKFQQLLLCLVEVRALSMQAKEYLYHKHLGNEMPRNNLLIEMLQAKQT
T2 sequence (P33242 221-462): as above

- loss of the SF-1/TIF2 binding activity ([1]; 10% ethanol added to the binding buffer): > 90%
Compound: CCO [ethanol]

- interaction of peptide motif with purified SF-1 (SF-1 LBD): not
Compound: CBP: N-terminally biotinylated peptide SGNLVPDAASKHKQLSELLRGGSG (SEQ ID NO:8) (Biotin-SGNLVPDAASKHKQLSELLRGGSG; listed as Mus musculus)

- interaction of peptide motif with purified SF-1 (SF-1 LBD): did not interact
Compound: N-COR: N-terminally biotinylated co-repressor motif peptide GHSFADPASNLGLEDIIRKALMGSF (SEQ ID NO:9)

- interaction of peptide motif with purified SF-1 (SF-1 LBD): able to interact
Compound: SRC-1 fourth LxxLL motif: N-terminally biotinylated peptide QKPTSGPQTPQAQQKSLLQQLLTE (SEQ ID NO:4) (Biotin-QKPTSGPQTPQAQQKSLLQQLLTE; listed as Mus musculus)

- interaction of peptide motif with purified SF-1 (SF-1 LBD): able to interact
Compound: SRC-1 second LxxLL motif: N-terminally biotinylated peptide SPSSHSSLTERHKILHRLLQEGSP (SEQ ID NO:3) (Biotin-SPSSHSSLTERHKILHRLLQEGSP; listed as Mus musculus)

- AlphaScreen signal on incubation of SF-1 with peptide (SF-1 LBD; background of SF-1 or peptide alone less than 200): ~45,000 photo counts
Compound: TIF2 peptide: N-terminally biotinylated peptide QEPVSPKKKENALLRYLLDKDDTKD (SEQ ID NO:2), third LxxLL motif of co-activator TIF2

- interaction of peptide motif with purified SF-1 (SF-1 LBD): able to interact
Compound: first LxxLL motif of SHP: N-terminally biotinylated peptide PCQGSASHPTILYTLLSPGP (SEQ ID NO:5) (Biotin-PCQGSASHPTILYTLLSPGP; listed as Mus musculus)

- interaction of peptide motif with purified SF-1 (SF-1 LBD): not
Compound: second SHP LxxLL motif: N-terminally biotinylated peptide VABAPVPSILKKILLEEPNS (SEQ ID NO:6)

Continued, compound first:

Compound: CCCCCCCCCCCC(=O)OC[C@H](COP(=O)(O)OCCN)OC(=O)CCCCCCCCCCC [12PE, 1,2-Didodecanoyl-sn-glycero-3-phosphoethanolamine]
- EC50 [1]: 66 nM
- restoration of co-activator binding of SF-1 mutants A270W, L266W and L348W [2]: completely restored
- restoration of co-activator binding of SF-1 mutants L345W, V349W and A434W [2]: cannot be restored

Compound: CCCCCCCCCCCCCC(=O)OC[C@H](COP(=O)(O)OCCN)OC(=O)CCCCCCCCCCCCC [14PE, 1,2-dimyristoyl-sn-glycero-3-phosphoethanolamine]
- EC50 [1]: 64 nM

Compound: CCCCCCCCCCCCCCCC(=O)OC[C@H](COP(=O)([O-])OCC[N+](C)(C)C)OC(=O)CCCCCCCCCCCCCCC [16PC, 1,2-dihexadecanoyl-sn-glycero-3-phosphocholine]
- EC50 [1]: 80 to 120 nM

Compound: CCCCC/C=C\C/C=C\CCCCCCCC(=O)OC[C@H](COP(=O)([O-])OCC[N+](C)(C)C)OC(=O)CCCCCCC/C=C\C/C=C\CCCCC [18PCD, 1,2-dilinoleonyl-sn-glycerol-3-phosphocholine]
- effect on high basal SF-1/TIF2 interaction ([1]; absence of ethanol, FIG. 5D): disrupted the high basal interactions of SF-1 with TIF2 in a dose dependent manner
- IC50 ([1]; absence of ethanol, high basal interaction, FIG. 5D, read-out: IC50 for inhibiting the SF-1/TIF2 interactions): 100 to 300 nM

Compound: SMRT: N-terminally biotinylated co-repressor motif peptide QAVQEHASASTNMGLEAIIRKALMGKY (SEQ ID NO:10) (Biotin-QAVQEHASASTNMGLEAIIRKALMGKY; listed as Mus musculus)
- interaction of peptide motif with purified SF-1 (SF-1 LBD): did not interact

Compound: TRAP220: N-terminally biotinylated peptide GHGEDFSKVSQNPILTSLLQITGN (SEQ ID NO:7) (Biotin-GHGEDFSKVSQNPILTSLLQITGN; listed as Mus musculus)
- interaction of peptide motif with purified SF-1 (SF-1 LBD): not
